Consider 3 molecules from patent publication US20150322152A1 (INSTITUT PASTEUR, published 2015).

Usually Kd stands for the constant that tells how readily two partners part at equilibrium. A higher Kd goes with lower affinity. A word on the koff: it is a measure of how fast the partners let go of each other. A high value points to a short-lived complex. As usually defined, the kon is a measure of how fast the partners come together.

For assay [1], the target named is human FcγRI receptor (immobilized for SPR; form not stated) (human) (UniProt P12314). The assay is described as follows: SPR, IgG injected onto immobilized hFcγRI. (SPR reads the build-up and loss of mass on a sensor chip optically.)
human FcγRI receptor (immobilized for SPR; form not stated) (human), sequence (P12314 16-288 limits assumed): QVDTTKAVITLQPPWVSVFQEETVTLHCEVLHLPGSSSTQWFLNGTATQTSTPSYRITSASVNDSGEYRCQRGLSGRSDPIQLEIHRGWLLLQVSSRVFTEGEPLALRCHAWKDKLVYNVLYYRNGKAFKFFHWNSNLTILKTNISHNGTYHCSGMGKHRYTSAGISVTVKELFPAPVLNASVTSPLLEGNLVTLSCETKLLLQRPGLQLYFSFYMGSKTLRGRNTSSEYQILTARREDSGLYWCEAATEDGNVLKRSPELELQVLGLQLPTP
For assay [2] the target is unchanged. Description: SPR, IgG injected onto immobilized hFcγRI. This is another data set of the same source.
Assay [3] has the same target. The assay is described as follows: SPR on immobilized hFcγRI (summary sentence; the table prints 41).
For assay [4], the target named is T1, human FcγRI receptor (immobilized for SPR; form not stated) (human, UniProt P12314 16-288, limits assumed).
T1 construct: also called hFcγRI; immobilized hFcγRI
T1 sequence (P12314 16-288 limits assumed): as above
Description: method not stated.

human IgG1 (antibody): in assay [1], the Half life stood at 3.6 min, the Kd stood at 0.041 µM, the koff was determined as 0.0014 s⁻¹ and the kon was determined as 35000 M⁻¹ s⁻¹. Further, in assay [2], the Ka was 2.5e+07 M⁻¹ and the Kd turned out to be 0.04 µM. In assay [3], this molecule yielded a Kd of 0.04 µM.
In assay [1], mouse IgG2a (antibody) returned a Half life of 4.52 min, a Kd of 0.038 µM, a koff of 0.0011 s⁻¹ and a kon of 36000 M⁻¹ s⁻¹. In assay [2], this molecule had a Ka of 2.5e+07 M⁻¹ and a Kd of 0.04 µM.

B1: anti-hFcγRI.1 monoclonal antibody (antibody, mouse IgG2a, V domains shown)
VH: EVQLQESGPGLVQPSQSLSITCTVSGFSLTTYGVHWVRQSPGKGLEWLGMIWSGGSTDYNAAFISRLSISKDNSKSQVFFKMNSLQADDTAIYYCAREWFAYWGQGTSVTVSS
VL: ELVMTQSPASLSASVGETVTITCRASENIYSYLAWYQQKQGKSPQLLVYSAKTLAEGVPSRFSGSGSGTQFSLKINSLQPEDFGSYYCQHHYGTPYTFGGGTKMEIK
notes: Mouse IgG2a; IgG purified by Protein G from hybridoma supernatant; also called anti-hFcγR1.1; hFcγRI.1 mAb
In assay [4], B1 yielded a Ka of 1.5e+09 M⁻¹.
